Assay results: the nanobody polyreactivity screen of Harvey et al. (2022)

Assay: yeast display, Sf9 membrane polyspecificity reagent, FACS + sequencing; frameworks hold sequencing errors
Procedure, shortened: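 In a synthetic yeast display library (Saccharomyces cerevisiae BJ5465), nanobody expression was induced with galactose for 36–48 hours. FACS gates were set low and high (top ~1%) using anti-HA fluorescence for expression and streptavidin fluorescence for binding of the Sf9 membrane reagent. Each polyreactivity label is drawn from the gate of origin.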

Row | Sequence | polyreactivity (PSR sort gate)
1 | QVQLVESGGGLVQEGGILPLSCAASGFIFGDYVMGWYRQAPGKERELVAAINRNGGRTYYADSVKGRFTISRDYAKNTVYLQMNSLKPEDTAVFYCAAVFRSDRYHWYYYWGQGTQVTVSS | high polyreactivity
2 | QVQLVESGGGLVQAGGSLRLSCAASGIIFFYYAMGWYRQAPGKERELVASISSGGSTNYADSVKGRFTISRDNAKNTVYLQMNSLKPEDTALYYCAARRYYVRIQGYKLDYWGHGTQVTVSS | low polyreactivity
3 | QVQLVESGGGLVQAGGSLRLSCAPSGLTYRRYTMGWYRQAPGKEREFVAAISWGGDSTYYADSVKGRFTISRDNAKNTVYLQLTSLKPEDTAVYYCAADFLYIYNYWGQGTQVTVSS | high polyreactivity
4 | QVQLVESGGGLVQAGGSLRLSCAASGITFYGYDMGWYIQAPGKERELVAAISRSGGSTYYADSVKGRFTISRDNAKNTVYLQMNSLKPEDTAVYYCAADKQGYRGRTPYRYYSWGQGTQVTVSS | high polyreactivity
5 | QVQLVESGGGLVQAGGSLRLSCAASGIIFGDNAMGLYRQEPGKERELVATISSSASTNYADSVKGRFTISRDNAKNTVYLQMNSLKPEDTAVYYCAADVYSPPNYDYWGQGTQVTVSS | low polyreactivity
6 | QVQLVESGGGLVQAGGSLRLSCAASGFIFWRYTMGWYRQAPGKERELVAVISWSGDNTYADSVKGRFTISRDNAKNTVYLQMNSLKPEDTAVYYCGVYRYDYWGQGTQVTVSS | low polyreactivity
7 | QVQLVESGGGIVQAGGSLRLSCAASGSIIGPNTMGWYRQAPGKERELVAAIRGGGSTNYADSVKGRFTISRDNAKNTVYLQMNSLKPEDTAVYYCNATWNLFPGVLDRYDYWGQGTQVTVSS | low polyreactivity
8 | QFQLVESGGGLVQAGGSLRLSCAASGFIFYKYAMGWYRQAPGKERELVAAISSIGGRTYYADSVKGRFTISRDNAKNTVYLQMNSLKPEDTAVYYCAARYRRTIPWFAPGNDHKYWGQGTQVTVSS | high polyreactivity
9 | QVQLVESGGGLVQAGGSLRLSCAASGRTFRYYAMGWYRQAPGKERELVAAIRTSGSTNYADSVKGRFTISRDNAKNTVYLQMNSLKPEDTAVYYCAAQPYWRYPYRAERDYWGQGTQVTVSS | high polyreactivity
10 | QVQLVESGGGLVQAGGSLRLSCAASGIIFAWYAMGWYRQAPGKERELVAAINWSGGSTYYADSVKGRFTISRDNAKNTVYLQMNSLKPEDTAVYYCNADFQDRTDDYDYWGQGTQVTVSS | low polyreactivity
11 | QVQLVESGGGLVHAGGSLRLSCAASAFIFLFYTMGSYRQAPGKERELVAAITSVGNTNYADSVKGRFSISRDNAKNTVFLQINSLKPEDTAVYYCAADTTDPGGAYQLMDYWGQGTQVTLSS | low polyreactivity
12 | QVQLVESGGGLVQAGGSLRLSCAASGFIFRGYAMGWYRQAPGKERELVAAISRSGGSTYYADSVKGRFTISRDNAKNTVYLQMNSLKPEDTAVYYCAARSFYSKGYDYWGQGTQVTVSS | high polyreactivity
13 | QVQLVESGGGLVQAGGSLRLSCAASGIIRHNAMGCYRPAPGKERELVAGISRRGGSTYYADSVKGRFTISRDNAKNTVYLQMNSLKPEDTAVYYCNARSAGSDLDYWGQGTQVTVSS | high polyreactivity
14 | QVQLVESGGGLVQAGGSLRLSCAASGFTFLPAYAMGWYRQAPGKERELVAAITRGGSTYYADSVKGRFTISRDNAKNTVYLQMNSLKPEDSAVYYCNADQKFGFYRSVGDDYWGQGTQVTVSS | low polyreactivity
15 | QVQLVESGGGLVQAGGSLRLSCAASGFTFTENVMGWYRQAPGKEREFVAAITYIGGRTYYADSVKGRFTISRDNAKNSVYLQMNSLKPEDTAVYYCAADWAYYVASYLYYTFDYWGQGTQVTVSS | low polyreactivity
16 | QVQLVESGGGLVQAGGSLRLSCAASGITFVTYAMGWYRQAPGKERELVAAISRSGGRTYYADSVKGRFTISRDNAKNTVYLQMNSLKPEDTAVYYCAAERKNKYDYWGQGTQVTVSS | high polyreactivity
17 | QVQLVESGGGLVQAGGSLRLSCAASGSILLYYAMGGSRPAPGKERQLVAAITCSGGSTYYADSVKGRFTISRDNAKNTDYLQMNSQKPEDTAVYYCNAVTDRAGSDYDSWGQGTQVTVSS | low polyreactivity
18 | QVQLVESGGGLVQAGGSLRLSCAASGRIIPLNAMGWYRPAPGKERELVAAISYDGCTYYADSVKGRFTISRDNAKNTVYLQMNSVKPEDTAVYYCAARGSYRGPYNVEYDSWGQGTQVTVSS | low polyreactivity
19 | QVQLVETGVGIVQAGGSLRLSCASSGSNCPLYAMGWYRQAPGKEREFVAAIRWIGGSTYYADSVKRRFTNSRDYAKNSVYLQMISLKPVDTAVYYCAAVYVVSAFDYWGQGTQVSVSS | low polyreactivity
20 | QVQLGESGGGLVQAGGSLRLSCAASGRIFYLNAMGWYRQAPGKERELVAVITGNAGCTYYADSVKGRFTISRDHAKNTVYLQMNSLKPEDTAVYYCNALRLVPWSDALYDYWGQGTQVTVSS | low polyreactivity
21 | QVQLVESGVGLVQAGGSLRLSCAASGPTFRNNAMVWSRQAPGKERELVAAITSGGSTNYADSVKGRFTISRDNAKNTVYLQMNSLKPEDTAVYYCAKDFWYVTGGWSSGMDYWGQGTQVSVSS | low polyreactivity
22 | QVQLVESGGGLVQAGGSLRLSCAASGSIFYGYTMGWYRQEPGKERELVAAIRKSGGSTNYADSVKGRFTISRDNAKNTVFLQMNSLKPEDTAVYYCAAAYYRGRGYYWGQGTQVTVSS | high polyreactivity

Row | Sequence | polyreactivity (PSR sort gate)
23 | QLQLVESGGGLVQAGGSLRLSCAASGRIFDYYAIGWYRQAPGKERQLVATINFSDGSTYYADSVKGRFTISRDNAKNTVYLQMNSLKPEDTAVYYCAAAGWEPYDSLDMNYWGQGTQVTVSS | low polyreactivity
24 | QVQLVESGGGLVQAGGSLRLSCAASGSIFDYYAMGWYRQAPGKERELVAAIDNPDSTNYADSVKGRFTISRDNAKNTVYFQMNSLKPEDTAVYYCNADYWRYISSYDYWGQGTQVTVSS | low polyreactivity
25 | QVQLVESGGGLVQAGGSLRLSCAASGSTFRYYAMGWYRQAPGKERELVAAISWGAGSTYYADSVKGRFTISRDNAKNTVYLQMNSLKPEDTAVYYCNTLQITGWYDYWGQGTQVTVSS | high polyreactivity
26 | QVQHVESGGGLVQAGGSLRLSSAASGSIFSYNAMGWYRQSPGKERELVAAIRASGGDTYYADSVKGRFTISRDNAKNTVYLQMNSLKPEDTAVYYCAARTYSHHYASHGYWGQGTQVTVSS | low polyreactivity
27 | QVQLVESGGGLVQAGGSLRLSCAASGFNFYRYTLGWYRQAPGKERELVASITRRCGSTYYADSVKGRFTISRDNAKHTVYLQMNILKQEDTAEYYCNDATPVWQSGTYDYWGQGTQVTVSS | high polyreactivity
28 | QVQLVETGRGLVQAGGSLRLSCAHSGRTFFSYAMGWYRQAPGKEREFVAAITGGGTYYADSVKRRFTISSDNAKNTVYLHMNSLKPEDTAVYYCAAAKRGTDYLSSFWMDYWGQVTQVTVSS | low polyreactivity
29 | QVQLVESGGGLVQAGGSLRLSCAASGSTFYVYAMGWYRQAPGKARELVAAIRSGGSTNYADSVKGRFTISRDNAKNTVYFQLNSLKPEDTAVYYCNADTWLYRYDYWGQGTQVTVSS | low polyreactivity
30 | QVQLVESGGGLVQAGGSLRLSCAASGSIFLGYTMGWYRQAPGKERELVAAINSSGGSTYYADSVKGRFTISRDNAKNTVYLQMNSLKPEDTAVYYCADANSILLFDSWGQGTQVTVSS | low polyreactivity
31 | QVQLVESGGGLVQAGGSLRLSCAASGSNFGSYTMGWSRQAPGKERELVAAISLGGGSTYYADSVKGRFTISRDNAKNTVYLQMNSLKPEDTAVYYCAAGFTDPYDYWGQGTQVTVSS | low polyreactivity
32 | QVQLVESGGGLVQAGGSLRLICAAWSIFYLNAMGWYRQAPGKERELVAAISSAGSTYYADSVKGRFTISRDNAKNSVYLQMNSLKPEDTAVYYCAAYWYDSPGVTEIWYDYWGQGTQVTVSS | low polyreactivity
33 | QVQLVESGGGLVQAGGSRRLSCAASGSTFSSYAKGWYRQAPGQERELVAAISSSGSRTYYADSVKGRFTISRDNAKNTVYLQMNSLKPEDTAVYYCAADYYYNTKLDYWGQGSQVTVSS | high polyreactivity
34 | QVQLVESGGGLVQAGGSLRLSCAASGRTFLPYAMGWYRQAPGKERELVAAITSGGSTSYADSVKGRFTISRDNAKNTVYLQMNSLKPEDSAVYYCAKGYYRFRRFYYGGYYWGQGTQVTVSS | low polyreactivity
35 | QVQLVESGGGLVQAGGSLRLSCAASGRIFSGYAMGWYRQAPGKERELVAAISQRGGSTTYADSVKGRFTISRDNAKKTVDLQMNSLKPEDTAVYDCAKRYTYPSGYDYWGQGTQVTVSS | low polyreactivity
36 | QVQLEESGGGLVQAGGSLRLSCAASGRTFSANTMGLYRKATGKERELVAAISKSGGSTYYADSVKGRLTISRDTAKYTVYLQMNSLNPEDTAVYYCAARTSGYWYSYGSWGQGTQVTVSS | high polyreactivity
37 | QVQLVESGGGLVQAGGSLRLSCAASGSILVPYTMGWYRQAPGKERELVASISYSGGTTYYADSVKGRFTISRDNAKNTVYLQMNSLKPEDTAVYYCAADWDESYSYRRYRHYNYWGQGTQVTVSS | low polyreactivity
38 | QVQLVESGGGLVQAGGGLRLSCAASGRTFTYNAMGWYRQAPGKERELVAAITYDGGGTYADSVKGRFTISRDNAKNTVYLQMNSMKPEDSAVYYCNKGPDPGSFYDYWGQGTQVTVSS | low polyreactivity
39 | QVQLVESGGGLVQAGGSLRLSCAASGRTFGYYAMGWYRQAPGKERELVATITSRGGDTSYADSVKGRFTISRDNAKNTVYLQMKSLKPEDTAVYYCAADRFQGRDDYWGQGTQVTVSS | high polyreactivity
40 | QVQLVESGGGLVQAGGSLRLSCAASGSIFNRYAMGWYRQAPRKERELVAAITAGGSSTYYADSVKGRFTISRDNAKNTVYLQMNSLKPEDTAVYYCNAVWWHPKDYDYWGQGTQVTVSS | low polyreactivity
41 | QVQLVESGGGLVQAGGSLRLSCAASGSIFRYYDMGWYRQAPGKERELVAAISDSTGTTYYADSVKGRFTISRDNAKNTVYLQMNSLKPEDTAVYYCTAGYDPRYDYWGQGTQVTVSS | high polyreactivity
42 | QVQLVESGGGLVQAGGSLRLSCAASGRTFYTNAMGWYRQAPGKERELVAVISRGGTTYYADSVKGRFTISRDNAKNTVYLQMNSLKPEDTAVYYCAKQRPSGESSSQMGSWGQGTQVTVSS | low polyreactivity
43 | QVQLVESGGGLVQAGGSLRLSCAASGSTFFFNAMGWYRQAPGKERELVAAITGRSGSTYYADSVKGRFTISRDNAKNTVYIQMNSLKPEDTAVYYCAADYVFVATPLRYDYWGQGTQVTVSS | low polyreactivity
